Experimental data reported in patent US20170327571A1 (BEIJING BETTERMAB BIOTECHNOLOGY, published 2017).

T1: Macaca fascicularis IL17 (mfIL17) (Macaca fascicularis, UniProt Q16552 24-155 (human entry), limits assumed)
T1 chain: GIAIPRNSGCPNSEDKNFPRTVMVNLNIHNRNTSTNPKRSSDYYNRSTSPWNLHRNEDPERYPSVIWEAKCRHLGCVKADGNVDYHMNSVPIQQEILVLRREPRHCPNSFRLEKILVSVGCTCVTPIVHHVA

T2: mouse (Mus musculus) IL17 (moIL17) (mouse (Mus musculus), UniProt Q62386 26-158)
T2 construct: also called mIL17; mouse IL17
T2 sequence: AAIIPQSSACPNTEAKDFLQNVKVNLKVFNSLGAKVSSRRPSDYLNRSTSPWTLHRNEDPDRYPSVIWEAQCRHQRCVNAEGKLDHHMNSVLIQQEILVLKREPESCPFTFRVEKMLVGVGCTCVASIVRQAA

T3: Macaca mulatta IL17 (mmIL17) (Macaca mulatta, UniProt Q16552 24-155 (human entry), limits assumed)
T3 chain: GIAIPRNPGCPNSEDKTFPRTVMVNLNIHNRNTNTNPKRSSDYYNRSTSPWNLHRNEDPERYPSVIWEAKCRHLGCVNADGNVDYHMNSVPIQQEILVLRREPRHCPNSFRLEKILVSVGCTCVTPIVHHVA

T4: huIL17-his (human IL17 with C-terminal His-tag) (human (homo sapiens), UniProt Q16552 24-155)
T4 sequence: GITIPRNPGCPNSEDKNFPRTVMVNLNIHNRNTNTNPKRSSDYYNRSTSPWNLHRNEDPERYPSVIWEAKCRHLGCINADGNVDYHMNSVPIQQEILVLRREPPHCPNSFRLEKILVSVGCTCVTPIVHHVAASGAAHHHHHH


Tests used:
[1] = molecular target: T1, Macaca fascicularis IL17 (mfIL17); experiment: ELISA, coated IL17 1 ug/ml, HRP-anti-human IgG
Experimental: (§1) Four kinds of prepared IL17 (huIL17, mIL17, mmIL17, and mfIL17) were used to coat 96-well ELISA plates overnight at 4° C. (1 μg/ml, 100 μl/well). A blocking solution (2% milk powder-PBST) was added, and the plates were incubated at 37° C. for 1 h. […] Then, the plates were washed four times with PBST. Then, HRP-anti-human IgG (a secondary antibody) was added, and allowed to incubate at 37° C. for 1 h. Then, the plates were washed four times with PBST. An OPD developing solution was added to develop for 5-10 min. Then, 1M H₂SO₄ was added to terminate the development.

[2] = molecular target: T2, mouse (Mus musculus) IL17 (moIL17); experiment: ELISA, coated IL17 1 ug/ml, HRP-anti-human IgG
Experimental: as §1

[3] = molecular target: T3, Macaca mulatta IL17 (mmIL17); experiment: ELISA, coated IL17 1 ug/ml, HRP-anti-human IgG
Experimental: as §1

[4] = molecular target: T4, huIL17-his (human IL17 with C-terminal …); experiment: cell-based or functional assay

binding result [1] | binding result [2] | binding result [3] | IC50 of inhibiting IL17-induced release of IL6 by HDFa cells (2 nM IL17-His) [4] | Binder
– | no binding | – | – | control antibody Secukinumab (antibody, V domains shown) VH: EVQLVESGGGLVQPGGSLRLSCAASGFTFSNYWMNWVRQAPGKGLEWVAAINQDGSEKYYVGSVKGRFTISRDNAKNSLYLQMNSLRVEDTAVYYCVRDYYDILTDYYIHYWYFDLWGRGTLVTVSS VL: not shown
binds | no binding | binds | 0.07 nM | anti-IL17 monoclonal antibody 9GC5 (antibody, V domains shown, Recombinant intact antibody) VH: EVQLVESGGGLVQPGGSLRLSCAASGMSMSDYWMNWVRQAPGKGLEWVAAINQDGDEKYYVGSVKGRFTISRDNAKNSLYLQMNSLRVEDTAVYYCVRDYYDLISDYYIHYWYFDLWGRGTLVTVSS VL: DIQMTQSPSSLSASVGDRVTITCRASQNVHNRLTWYQQKPGKAPKLLIYGASNLESGVPSRFSGSGSGTDFTLTISSLQPEDFATYYCQQYNGSPTTFGQGTKVEIK
binds | no binding | binds | – | Ixekizumab (antibody, V domains shown) VH: QVQLVQSGAEVKKPGSSVKVSCKASGYSFTDYHIHWVRQAPGQGLEWMGVINPMYGTTDYNQRFKGRVTITADESTSTAYMELSSLRSEDTAVYYCARYDYFTGTGVYWGQGTLVTVSS VL: DIVMTQTPLSLSVTPGQPASISCRSSRSLVHSRGNTYLHWYLQKPGQSPQLLIYKVSNRFIGVPDRFSGSGSGTDFTLKISRVEAEDVGVYYCSQSTHLPFTFGQGTKLEIK

Second part, the binder before the results:

Binder | binding result [1] | binding result [2] | binding result [3] | IC50 of inhibiting IL17-induced release of IL6 by HDFa cells (2 nM IL17-His) [4]
anti-IL17 monoclonal antibody 9GA3 (antibody, V domains shown, Recombinant intact antibody) VH: EVQLVESGGGLVQPGGSLRLSCAASGITMDDYWMNWVRQAPGKGLEWVAAINQDGNEKYYVGSVKGRFTISRDNAKNSLYLQMNSLRVEDTAVYYCVRDYYDLISDYYIHYWYFDLWGRGTLVTVSS VL: DIQMTQSPSSLSASVGDRVTITCRASQNVHNRLTWYQQKPGKAPKLLIYGASNLESGVPSRFSGSGSGTDFTLTISSLQPEDFATYYCQQYNGSPTTFGQGTKVEIK | binds | no binding | binds | 0.12 nM
anti-IL17 monoclonal antibody 9GC2 (antibody, V domains shown, Recombinant intact antibody) VH: EVQLVESGGGLVQPGGSLRLSCAASGFTIDNYWMNWVRQAPGKGLEWVAAINQDGNEKYYVGSVKGRFTISRDNAKNSLYLQMNSLRVEDTAVYYCVRDYYDVISDYYIHYWYFDLWGRGTLVTVSS VL: DIQMTQSPSSLSASVGDRVTITCRASQNVHNRLTWYQQKPGKAPKLLIYGASNLESGVPSRFSGSGSGTDFTLTISSLQPEDFATYYCQQYNGSPTTFGQGTKVEIK | binds | no binding | binds | 0.22 nM
